Source: the RNAGym collection of RNA variant scans (doi:10.7554/elife.80360)

B1: Twister Ribozyme (parent)
chain: AACACUGCCAAUGCCGGUCCCAAGCCCGGAUAAAAGUGGAGGGGGCGG

Variants of: B1
Assay: self-cleavage, relative activity (ratio to wild type); higher = more cleavage; co-transcriptional

Point of comparison: A11G C27U, self-cleavage 0.405. Against it:
- G13A G28U — higher, 0.623
- G13U G28U — higher, 0.466
- C21G A35C — lower, 0.0454
- C5A C46G — higher, 0.689
- G13C G48U — lower, 0.217
- U31A G47U — higher, 0.621
- U31A G47C — lower, 0.391
- C15G G44U — lower, 0.075
- G7U G43C — lower, 0.0634
- C26U C46U — higher, 0.519
- C8U U31A — higher, 0.592
- A10G C26A — higher, 0.518
- C20G G47A — lower, 0.111
- C20A A40U — lower, 0.106
- C20A A40C — lower, 0.129
- C9A A30G — higher, 0.846
- G17C A32U — lower, 0.109
- C8G G28A — lower, 0.0928
- U6C G44C — higher, 0.513
- C5G G39U — lower, 0.134
- C27G G29A — lower, 0.0827
- A33C A35U — higher, 0.936
- U6G C20U — lower, 0.236
- G7C C21G — lower, 0.0593
- G7C A22C — lower, 0.0571
- A10C A32G — higher, 0.971
- C21A A33U — lower, 0.102
- C19U C26G — lower, 0.0861
- C5G G36C — higher, 0.966
- G13C U31C — higher, 0.552
- G17A A22G — lower, 0.136
- A34C G41C — lower, 0.111
- C15U A22G — lower, 0.147
- U18A G44U — higher, 0.543
- U6A G28A — higher, 0.616
- U37G — higher, 0.861
- G24C G48U — lower, 0.0846
- G17U U31A — higher, 0.471
- G44C G47U — lower, 0.244
- C19A G44U — higher, 0.679
- C26A G41A — lower, 0.101
- C25G G38C — lower, 0.229
- C15U C19G — lower, 0.251
- C8G U31A — higher, 0.472
- C8G G42C — lower, 0.221
- C5U G41A — lower, 0.214
- A1G C15U — the same, 0.405
- A10G C27U — higher, 1.01
- G16A G48U — higher, 0.917
- C26U G44C — lower, 0.172
- G24U G45U — lower, 0.091
- C14U G29U — higher, 1.09
- G13A C14G — higher, 0.551
- C14A U31G — higher, 0.942
- U18G G28A — lower, 0.0711
- C15U A35U — higher, 0.915
- G17A U31A — higher, 0.715
- A11C C20G — lower, 0.131
- A4U G28A — lower, 0.0702
- G36A G38C — lower, 0.327
- C5U A30C — higher, 0.542
- G7A A10G — higher, 0.982
- C19U G29U — higher, 0.836
- C3G A35C — lower, 0.397
- C14G C25A — lower, 0.0733
- G16U A30C — higher, 0.804
- A4U C27G — lower, 0.115
- C8A A34C — lower, 0.189
- A4U G29U — lower, 0.094
- A4U U31A — lower, 0.143
- A10G A22C — higher, 0.818
- A22G G42U — lower, 0.0653
- U6A U18A — lower, 0.174
- A2C C15G — lower, 0.0398
- C9G A35U — higher, 0.695
- A2G A33G — higher, 0.442
- C3G A32G — higher, 0.434
- A10C G44U — higher, 0.859
- A2U C14U — higher, 0.591
- A2U C14G — lower, 0.0946
- G29A G38C — higher, 0.7
- A4G G38C — higher, 0.918
- C27U G29A — higher, 0.687
- G17C C25A — lower, 0.0882
- A1U G41A — lower, 0.0475
- A1U G41C — lower, 0.0395
- A11C G39A — higher, 0.601
- C3U C9G — lower, 0.12
- A33U U37A — higher, 0.688
- U6A G43A — lower, 0.223
- C25A A32G — lower, 0.0602
- C26U G38U — lower, 0.201
- C14A A34G — higher, 0.88
- C19G A22C — lower, 0.219
- C19G A22U — lower, 0.0871
- C27U G38C — higher, 0.644
- C20A U31A — lower, 0.14
- A11G G48U — higher, 0.942
- G7C G17U — lower, 0.0545
- C15A G16C — lower, 0.264
- U31C U37C — higher, 0.587
- C19G A35C — lower, 0.393
- A22U A35G — higher, 0.583
- A32U A35U — higher, 1.13
- G29U G45A — higher, 0.812
- A1C C15A — lower, 0.179
- A30G C46A — higher, 0.763
- A10C U12G — higher, 1.06
- U18G G42U — lower, 0.0585
- U18G U37G — lower, 0.0758
- C8U C14U — higher, 0.791
- A23G U37C — lower, 0.142
- U12C A34U — higher, 0.886
- C15U G45U — higher, 0.817
- G24C A33C — lower, 0.146
- G43A G44A — lower, 0.267
- G13U G44C — higher, 0.488
- C5G C14U — higher, 0.793
- A11C U31A — higher, 0.502
- C9U C15U — higher, 0.594
- G24U G29A — lower, 0.127
- C15G G28U — higher, 0.761
- G36U G41A — lower, 0.124
- C8U G47U — lower, 0.345
- A1G G7A — lower, 0.216
- G38A G43U — lower, 0.195
- A23G C25G — lower, 0.0343
- A30C G47C — lower, 0.17
- G28U G48A — higher, 0.726
- A4C A40U — lower, 0.0853
- C15A G47U — lower, 0.332
- C21A A30C — lower, 0.079
- A35U G36A — higher, 0.593
- C19G A34C — lower, 0.0815
- U6A A35C — higher, 1.04
- A4G G29U — higher, 0.851
- A4G G29C — higher, 0.571
- G7A G43A — lower, 0.176
- G24U A33U — lower, 0.121
- G7A C27A — lower, 0.112
- G17A G48A — higher, 0.661
- G36C G47C — lower, 0.171
- G13U C14A — higher, 0.687
- A10U G16U — higher, 0.802
- U6C C21U — lower, 0.0537
- C8U A10C — higher, 0.755
- A11U G39A — higher, 0.63
- C15A C46A — higher, 0.565
- C9G C15U — higher, 0.479
- A1C U31A — lower, 0.168
- G45U G47C — higher, 0.435
- C5G A22U — lower, 0.401
- U6A A10G — higher, 1.22
- A30G G39A — higher, 0.582
- A30G G39C — lower, 0.159
- C8U G48C — higher, 0.652
- G13U G48C — higher, 0.456
- C5U U12A — higher, 0.943
- A10C U31G — higher, 0.737
- U37A G48U — higher, 0.811
- G17A G38U — higher, 0.468
- C15A G43A — lower, 0.299
- C15A G48C — higher, 0.715
- C3U C14G — lower, 0.0572
- G16C C27U — higher, 0.854
- A1G G13C — lower, 0.223
